Results from patent US20230051715A1 (MABWELL THERAPEUTICS, published 2023).

Biological target: T1, human C1s deletion mutant 3 (NHCΔ33) (human, UniProt P09871 16-404)
T1 construct: C-terminal 6xHis tag; also called human C1s (NHCΔ33); C1s (NHCΔ33)
T1 sequence: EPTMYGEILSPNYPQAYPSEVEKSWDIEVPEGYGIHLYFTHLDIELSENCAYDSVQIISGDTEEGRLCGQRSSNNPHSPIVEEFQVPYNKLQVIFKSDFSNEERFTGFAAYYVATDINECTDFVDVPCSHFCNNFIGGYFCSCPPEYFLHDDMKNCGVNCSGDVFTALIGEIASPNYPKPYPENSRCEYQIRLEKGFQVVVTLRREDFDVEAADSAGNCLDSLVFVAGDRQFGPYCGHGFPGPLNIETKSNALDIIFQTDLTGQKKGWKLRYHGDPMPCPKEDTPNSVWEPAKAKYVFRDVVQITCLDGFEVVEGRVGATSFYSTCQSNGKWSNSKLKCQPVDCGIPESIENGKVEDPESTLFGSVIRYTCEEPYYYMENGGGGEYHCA
Test: ELISA, C1s fragment coated on plate; hz2-8(H1L2 G80A/T82A), second of the two values
Protocol: ELISA was carried out by first coating 96-well plates with 200 ng/well of full-length or truncated C1s proteins overnight. The next morning, plates were blocked with SuperBlock T20 blocking buffer (Thermo Scientific 37536) for 1 h with gentle shaking. Then, various concentrations of anti-C1s antibodies diluted in SuperBlock T20 blocking buffer were added to the plates and incubated for 1 h with gentle shaking. Mouse IgG (Sigma-Aldrich 15381) and human IgG1 (BioXCell BP0297) were used as negative controls. The plates were washed before incubating with HRP conjugated secondary antibodies diluted in SuperBlock T20 blocking buffer (goat anti-mouse IgG (H+L) cross-adsorbed secondary antibody HRP (Invitrogen G-21040) or goat anti-human IgG antibody, HRP conjugate (Millipore AP309P)) for 1 h with gentle shaking. At last, the plates were washed and color developed with ELISA liquid HRP substrate (Sigma-Aldrich), followed by stopping the reaction with addition of 1M H₂SO₄ in the same volume as the ELISA liquid substrate. Bound antibody was measured by absorbance at OD₄₅₀ₙₘ.
Binding of various anti-C1s antibodies to human C1s (NHCΔ33) (SEQ ID NO: 111) was carried out by ELISA as described in Example 4, and results are shown in FIG. 6A.

EC50: 0.015 µg/mL
B1: Anti-C1s antibody hz2-8 (H1L2 G80A/T82A) (antibody, V domains shown)
VH: QVQLVQSGAEVKKPGASVKVSCKASGFNIKEYYMHWVRQAPEQGLEWMGWIDPENADAIYAQKFQGRVTITADTSTNTAYMELSSLRSEDTAVYYCARSRLFFAYWGQGTLVTVSS
VL: DIQMTQSPKSLSASVGDRVTITCRASQDVRTALDWYQQKPGQSPKLLIYSASYRYSGVPSRFSGSGSGTDFTLTISSLQPEDFATYYCQQQYTTPYTFGQGTKLEIKR
notes: Humanized variant with G80A and T82A in HC CDR2 (already in the entry), human IgG1 / kappa
